What was measured:
Assay in all cases: cryo-EM structure; endogenous human Pol III purified from HeLa POLR1C-GFP cells, not cross-linked, apo, 4.0 Å
Details in all cases: both partners purified
[1] = target: RPABC1, subunit of purified human Pol III (human (endogenous in HeLa), UniProt P19388 1-210)
[2] = target: T1, RPC5, subunit of purified human Pol III (human (endogenous in HeLa), UniProt Q9NVU0 1-708)
T1 construct: RPC5, subunit of the TFIIF-like RPC4/5 heterodimer of RNA polymerase III, human, endogenous; the C-terminal extension (RPC5EXT) was not visible in the EM map; also called POLR3E; source: endogenous, HeLa, purified within Pol III
T1 sequence (looked up): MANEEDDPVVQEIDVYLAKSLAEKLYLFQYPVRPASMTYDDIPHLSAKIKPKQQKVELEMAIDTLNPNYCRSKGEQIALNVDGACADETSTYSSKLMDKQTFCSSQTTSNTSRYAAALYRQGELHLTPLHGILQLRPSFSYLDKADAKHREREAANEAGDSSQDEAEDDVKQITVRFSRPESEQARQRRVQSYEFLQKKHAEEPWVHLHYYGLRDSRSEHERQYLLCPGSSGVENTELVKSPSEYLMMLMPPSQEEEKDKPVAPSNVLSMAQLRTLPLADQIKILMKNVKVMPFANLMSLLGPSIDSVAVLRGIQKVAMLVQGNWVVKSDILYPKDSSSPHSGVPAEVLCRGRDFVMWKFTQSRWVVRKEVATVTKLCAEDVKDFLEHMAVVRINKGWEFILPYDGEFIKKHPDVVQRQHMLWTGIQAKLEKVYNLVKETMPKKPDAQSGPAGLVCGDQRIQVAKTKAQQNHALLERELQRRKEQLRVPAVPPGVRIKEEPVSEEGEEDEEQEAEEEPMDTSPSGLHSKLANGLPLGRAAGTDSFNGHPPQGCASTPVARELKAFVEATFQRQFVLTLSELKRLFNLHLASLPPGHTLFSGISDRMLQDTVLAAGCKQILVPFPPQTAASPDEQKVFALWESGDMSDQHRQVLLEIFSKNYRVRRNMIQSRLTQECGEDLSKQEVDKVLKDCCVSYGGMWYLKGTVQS

[3] = target: T2, RPC8, stalk subunit of purified human Pol III (human (endogenous in HeLa), UniProt Q9Y535 1-204)
T2 construct: RPC8, stalk subunit of RNA polymerase III, human, endogenous; source: endogenous, HeLa, purified within Pol III
T2 sequence (looked up): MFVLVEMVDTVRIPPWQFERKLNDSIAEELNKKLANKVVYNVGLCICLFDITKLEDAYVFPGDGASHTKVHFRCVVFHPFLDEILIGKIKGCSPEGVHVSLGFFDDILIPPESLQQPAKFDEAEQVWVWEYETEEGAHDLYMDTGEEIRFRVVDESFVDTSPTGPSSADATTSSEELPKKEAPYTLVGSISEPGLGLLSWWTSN

B1: RPC1, largest subunit of purified human Pol III (natural protein)
chain: MVKEQFRETDVAKKISHICFGMKSPEEMRQQAHIQVVSKNLYSQDNQHAPLLYGVLDHRMGTSEKDRPCETCGKNLADCLGHYGYIDLELPCFHVGYFRAVIGILQMICKTCCHIMLSQEEKKQFLDYLKRPGLTYLQKRGLKKKISDKCRKKNICHHCGAFNGTVKKCGLLKIIHEKYKTNKKVVDPIVSNFLQSFETAIEHNKEVEPLLGRAQENLNPLVVLNLFKRIPAEDVPLLLMNPEAGKPSDLILTRLLVPPLCIRPSVVSDLKSGTNEDDLTMKLTEIIFLNDVIKKHRISGAKTQMIMEDWDFLQLQCALYINSELSGIPLNMAPKKWTRGFVQRLKGKQGRFRGNLSGKRVDFSGRTVISPDPNLRIDEVAVPVHVAKILTFPEKVNKANINFLRKLVQNGPEVHPGANFIQQRHTQMKRFLKYGNREKMAQELKYGDIVERHLIDGDVVLFNRQPSLHKLSIMAHLARVKPHRTFRFNECVCTPYNADFDGDEMNLHLPQTEEAKAEALVLMGTKANLVTPRNGEPLIAAIQDFLTGAYLLTLKDTFFDRAKACQIIASILVGKDEKIKVRLPPPTILKPVTLWTGKQIFSVILRPSDDNPVRANLRTKGKQYCGKGEDLCANDSYVTIQNSELMSGSMDKGTLGSGSKNNIFYILLRDWGQNEAADAMSRLARLAPVYLSNRGFSIGIGDVTPGQGLLKAKYELLNAGYKKCDEYIEALNTGKLQQQPGCTAEETLEALILKELSVIRDHAGSACLRELDKSNSPLTMALCGSKGSFINISQMIACVGQQAISGSRVPDGFENRSLPHFEKHSKLPAAKGFVANSFYSGLTPTEFFFHTMAGREGLVDTAVKTAETGYMQRRLVKSLEDLCSQYDLTVRSSTGDIIQFIYGGDGLDPAAMEGKDEPLEFKRVLDNIKAVFPCPSEPALSKNELILTTESIMKKSEFLCCQDSFLQEIKKFIKGVSEKIKKTRDKYGINDNGTTEPRVLYQLDRITPTQVEKFLETCRDKYMRAQMEPGSAVGALCAQSIGEPGTQMTLKTFHFAGVASMNITLGVPRIKEIINASKAISTPIITAQLDKDDDADYARLVKGRIEKTLLGEISEYIEEVFLPDDCFILVKLSLERIRLLRLEVNAETVRYSICTSKLRVKPGDVAVHGEAVVCVTPRENSKSSMYYVLQFLKEDLPKVVVQGIPEVSRAVIHIDEQSGKEKYKLLVEGDNLRAVMATHGVKGTRTTSNNTYEVEKTLGIEAARTTIINEIQYTMVNHGMSIDRRHVMLLSDLMTYKGEVLGITRFGLAKMKESVLMLASFEKTADHLFDAAYFGQKDSVCGVSECIIMGIPMNIGTGLFKLLHKADRDPNPPKRPLIFDTNEFHIPLVT
notes: RPC1, largest subunit of RNA polymerase III, human, endogenous; also called POLR3A; source: endogenous, HeLa, purified within Pol III
[1]
  binding result: binds

B2: RPC4, subunit of purified human Pol III (natural protein, human (endogenous in HeLa), UniProt P05423 1-398, looked up)
chain: MSEGNAAGEPSTPGGPRPLLTGARGLIGRRPAPPLTPGRLPSIRSRDLTLGGVKKKTFTPNIISRKIKEEPKEEVTVKKEKRERDRDRQREGHGRGRGRPEVIQSHSIFEQGPAEMMKKKGNWDKTVDVSDMGPSHIINIKKEKRETDEETKQILRMLEKDDFLDDPGLRNDTRNMPVQLPLAHSGWLFKEENDEPDVKPWLAGPKEEDMEVDIPAVKVKEEPRDEEEEAKMKAPPKAARKTPGLPKDVSVAELLRELSLTKEEELLFLQLPDTLPGQPPTQDIKPIKTEVQGEDGQVVLIKQEKDREAKLAENACTLADLTEGQVGKLLIRKSGRVQLLLGKVTLDVTMGTACSFLQELVSVGLGDSRTGEMTVLGHVKHKLVCSPDFESLLDHKHR
notes: RPC4, subunit of the TFIIF-like RPC4/5 heterodimer of RNA polymerase III, human, endogenous; also called POLR3D; source: endogenous, HeLa, purified within Pol III
[2]
  binding result: binds

B3: RPC9, stalk subunit of purified human Pol III (natural protein)
chain: not shown
notes: RPC9, stalk subunit of RNA polymerase III, human, endogenous; source: endogenous, HeLa, purified within Pol III
[3]
  binding result: binds
